Earlier results on one substance are cited in publication PMC5533512.

The series addresses CD40 (Homo sapiens) (UniProt P25942).
Chain of UniProt P25942 (P25942 21-193): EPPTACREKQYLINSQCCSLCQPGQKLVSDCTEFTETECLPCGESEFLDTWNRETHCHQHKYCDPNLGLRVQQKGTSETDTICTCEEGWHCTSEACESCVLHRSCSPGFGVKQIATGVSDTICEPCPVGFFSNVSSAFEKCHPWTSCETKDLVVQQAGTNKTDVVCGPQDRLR

Usually Kd stands for the equilibrium constant for the complex coming apart. Regarding dacetuzumab, the dissociation constant (Kd) was 1 nM.
